Experimental data reported in article PMC7409301, “Natural Killer Cell Activation Receptor NKp30 Oligomerization Depends on Its N-Glycosylation” (Cancers, 2020).
Values joined by “and” are separate entries in the source; they are usually repeats but may differ in a detail not shown here. Equal entries are not always repeated.

Legend:
[1] = molecular target: NKp30_Stalk, uniform simple N-glycans (expressed in HEK293S GnTI^−) (human) (UniProt O14931); experiment: SPR; NKp30_Stalk monomer; settings: domain or fragment
[2] = molecular target: NKp30_Stalk, uniform simple N-glycans (expressed in HEK293S GnTI^−) (human) (UniProt O14931); experiment: SPR; NKp30_Stalk oligomer; settings: domain or fragment
[3] = molecular target: NKp30_Stalk, wild-type N-glycosylation (expressed in HEK293T) (human) (UniProt O14931); experiment: SPR; NKp30_Stalk oligomer; settings: domain or fragment
[4] = molecular target: NKp30_Stalk, deglycosylated with endoglycosidase Endo F1 (human) (UniProt O14931); experiment: SPR; settings: domain or fragment
[5] = molecular target: NKp30_Stalk, uniform simple N-glycans (expressed in HEK293S GnTI^−) (human) (UniProt O14931); experiment: SPR; NKp30_Stalk monomer; settings: domain or fragment; remark: listed apart in the source
[6] = molecular target: NKp30_Stalk, wild-type N-glycosylation (expressed in HEK293T) (human) (UniProt O14931); experiment: SPR; NKp30_Stalk monomer; settings: domain or fragment
B7-H6 (Homo sapiens) = B7-H6 (Homo sapiens) (UniProt Q68D85); settings: cited from earlier work
[7] = molecular target: NKp30_LBD (Ligand Binding Domain), glycosylation state not told in the text for the experiment (human) (UniProt O14931); experiment: AUC; NKp30_LBD at high concentration, 20 mg/mL, 50,000 rpm, 3 mm centerpiece, interference optics, nonideal c(s) model
[8] = molecular target: B7-H6 C212S extracellular portion, uniform simple N-glycans (expressed in HEK293S GnTI^−) (UniProt Q68D85); experiment: SPR; settings: domain or fragment
[9] = molecular target: B7-H6 C212S extracellular portion, glycosylation state not told in the text for the experiment (UniProt Q68D85); experiment: SPR; Biacore T200; biotinylated B7-H6 on streptavidin sensor; analyte NKp30_LBD, deglycosylated NKp30_Stalk or the monomeric fraction of NKp30_Stalk, 1 nM to 16.3 μM, single cycle kinetics; 10 mM HEPES pH 7.5, 150 mM NaCl, 1 mg/mL dextran, 0.05% Tween-20; steady-state responses fitted with AB hetero-association model
[10] = molecular target: B7-H6 C212S extracellular portion, glycosylation state not told in the text for the experiment (UniProt Q68D85); experiment: SPR; as a7 but analyte is the oligomeric fraction of NKp30_Stalk; increase in affinity put down to the avidity of the oligomers
[11] = molecular target: B7-H6 C212S extracellular portion, uniform simple N-glycans (expressed in HEK293S GnTI^−) (UniProt Q68D85); experiment: SPR; NKp30_Stalk oligomer; settings: domain or fragment
[12] = molecular target: B7-H6 C212S extracellular portion, wild-type N-glycosylation (expressed in HEK293T) (UniProt Q68D85); experiment: ITC; NKp30_Stalk oligomer; settings: domain or fragment
[13] = molecular target: B7-H6 C212S extracellular portion, uniform simple N-glycans (expressed in HEK293S GnTI^−) (UniProt Q68D85); experiment: SPR; NKp30_Stalk monomer; settings: domain or fragment
[14] = molecular target: B7-H6 C212S extracellular portion, wild-type N-glycosylation (expressed in HEK293T) (UniProt Q68D85); experiment: ITC; NKp30_Stalk monomer; settings: domain or fragment
[15] = molecular target: B7-H6 C212S extracellular portion, wild-type N-glycosylation (expressed in HEK293T) (UniProt Q68D85); experiment: ITC; NKp30_Stalk monomer; settings: domain or fragment; remark: listed apart in the source
[16] = molecular target: NKp30_Stalk, wild-type N-glycosylation (expressed in HEK293T) (human) (UniProt O14931); experiment: AUC; sedimentation velocity of glycosylated and deglycosylated NKp30_Stalk oligomers, 20 μM, 20 °C, 10 mM HEPES pH 7.5, 150 mM NaCl, 10 mM NaN3, 36,000 or 48,000 rpm
[17] = molecular target: T1, B7-H6 C212S extracellular portion, wild-type N-glycosylation (expressed in HEK293T) (UniProt Q68D85 25-245, C212S, complex wild-type N-glycans (HEK293T); biotinylated with EZ-Link NHS-Biotin for SPR); experiment: ITC
T1 sequence: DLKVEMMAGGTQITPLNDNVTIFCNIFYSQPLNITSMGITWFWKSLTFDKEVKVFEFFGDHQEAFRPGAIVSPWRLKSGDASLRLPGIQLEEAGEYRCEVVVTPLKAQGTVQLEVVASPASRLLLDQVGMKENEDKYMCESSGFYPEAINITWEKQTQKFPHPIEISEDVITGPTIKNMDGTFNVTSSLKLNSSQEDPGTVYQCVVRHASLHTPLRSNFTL

[18] = molecular target: T2, B7-H6 C212S extracellular portion, uniform simple N-glycans (expressed in HEK293S GnTI^−) (UniProt Q68D85 25-245, C212S, uniform Asn-GlcNAc2Man5 N-glycans; biotinylated with EZ-Link NHS-Biotin for SPR; labelled with ATTO 488-NHS ester for the two-wavelength sedimentation analysis); experiment: SPR
T2 sequence: T1 sequence

[19] = sedimentation velocity AUC; settings: glycan changed form; control: NKp30_Stalk from HEK293S GnTI− (uniform glycans)
[20] = solubility during deglycosylation in HEPES buffer; settings: glycan lost; control: glycosylated B7-H6 (HEK293S GnTI−)
[21] = molecular target: NKp30_Stalk, glycosylated, type of N-glycans not told in the text for the experiment (human) (UniProt O14931); experiment: AUC; sedimentation velocity of the monomeric fraction of glycosylated NKp30_Stalk, of B7-H6 and of their equimolar mixture, 20 μM, 20 °C, HEPES buffer
[22] = molecular target: NKp30_Stalk, wild-type N-glycosylation (expressed in HEK293T) (human) (UniProt O14931); experiment: ITC; as a9 but the oligomeric fraction of NKp30_Stalk in the cell
[23] = molecular target: NKp30_Stalk, wild-type N-glycosylation (expressed in HEK293T) (human) (UniProt O14931); experiment: AUC; sedimentation velocity of the oligomeric fraction of NKp30_Stalk (HEK293T) with ATTO488-labelled B7-H6, read at 280 nm (total) and 480 nm (B7-H6 only), 20 °C

For “B7-H6 C212S extracellular portion, deglycosylated with endoglycosidase Endo F1 (from UniProt Q68D85 25-245)”, the Kd [1] was 380 nM.

“B7-H6 C212S extracellular portion, uniform simple N-glycans (expressed in HEK293S GnTI^−) (from UniProt Q68D85 25-245)” showed a Kd [2] of 70 nM, a Kd [3] of 90 nM and a Kd [4] of 350 nM. The Kd [5] was 370 nM, the Kd [1] was 350 nM and the Kd [6] was 380 nM.

With “B7-H6 C212S extracellular portion, wild-type N-glycosylation (expressed in HEK293T) (from UniProt Q68D85 25-245)” the Kd [1] was 370 nM.

In the case of NKp30 (from UniProt O14931), the Kd (B7-H6 (Homo sapiens)) is given as 1000 nM.

Molecule “NKp30_LBD (Ligand Binding Domain), glycosylation state not told in the text for the experiment (from UniProt O14931 19-130) (domain or fragment)” has a stoichiometry N [7] of 2.

Work on “NKp30_Stalk, deglycosylated with endoglycosidase Endo F1 (from UniProt O14931 19-135)” yielded a Kd [8] of 350 nM.

Work on “NKp30_Stalk, glycosylated, type of N-glycans not told in the text for the experiment (from UniProt O14931 19-135) (domain or fragment)” yielded a fold higher affinity than NKp30 LBD [9] of 2 fold, a fold stronger binding than NKp30 LBD [10] of 10 fold and a fold stronger binding than the NKp30 Stalk monomeric fraction [10] of 4 fold.

“NKp30_Stalk, uniform simple N-glycans (expressed in HEK293S GnTI^−) (from UniProt O14931 19-135)” showed a Kd [11] of 70 nM, a Kd [12] of 1000 nM and a Kd [13] of 370 nM. It also gave a Kd [14] of 960 nM and a Kd [15] of 970 nM.

Work on “NKp30_Stalk, wild-type N-glycosylation (expressed in HEK293T) (from UniProt O14931 19-135)” yielded a Kd [11] of 90 nM, a Kd [12] of 830 nM and a Kd [13] of 380 nM. It also gave a Kd [15] of 590 nM.

With “NKp30_Stalk, wild-type N-glycosylation (expressed in HEK293T) (from UniProt O14931 19-135) (domain or fragment)” the stoichiometry N [16] was 8 units and 16 units.

B1: NKp30_LBD (Ligand Binding Domain), uniform simple N-glycans (expressed in HEK293S GnTI^−) (domain or fragment)
chain: LWVSQPPEIRTLEGSSAFLPCSFNASQGRLAIGSVTWFRDEVVPGKEVRNGTPEFRGRLAPLASSRFLHDHQAELHIRDVRGHDASIYVCRVEVLGLGVGTGNGTRLVVEKE
modifications: uniform Asn-GlcNAc2Man5 N-glycans; GlcNAc modelled at Asn42 in the crystal structure
B1 showed a Kd [17] of 890 nM and a Kd [18] of 1010 nM.

B2: NKp30_LBD (Ligand Binding Domain), wild-type N-glycosylation (expressed in HEK293T) (domain or fragment)
chain: B1 chain
modifications: complex wild-type N-glycans (HEK293T)
For B2, the Kd [17] was 770 nM and the Kd [18] was 910 nM.

B3: NKp30_LBD (Ligand Binding Domain), deglycosylated with endoglycosidase Endo F1 (domain or fragment)
chain: B1 chain
modifications: a single GlcNAc unit left at each N-glycosylation site after Endo F1
In the case of B3, the Kd [17] is reported as 550 nM and the Kd [18] is reported as 690 nM.

B4: NKp30: HEK293T wild-type glycosylation (protein)
parent chain: MAWMLLLILIMVHPGSCALWVSQPPEIRTLEGSSAFLPCSFNASQGRLAIGSVTWFRDEVVPGKEVRNGTPEFRGRLAPLASSRFLHDHQAELHIRDVRGHDASIYVCRVEVLGLGVGTGNGTRLVVEKEHPQLGAGTVLLLRAGFYAVSFLSVAVGSTVYYQGKCLTWKGPRRQLPAVVPAPLPPPCGSSAHLLPPVPGG
With B4 the oligomerisation [19] was “changes, one dominant species of ca 8 units and with secondary species of ca 16 units”.

B5: B7-H6: Endo F1 (protein)
parent chain: MTWRAAASTCAALLILLWALTTEGDLKVEMMAGGTQITPLNDNVTIFCNIFYSQPLNITSMGITWFWKSLTFDKEVKVFEFFGDHQEAFRPGAIVSPWRLKSGDASLRLPGIQLEEAGEYRCEVVVTPLKAQGTVQLEVVASPASRLLLDQVGMKENEDKYMCESSGFYPEAINITWEKQTQKFPHPIEISEDVITGPTIKNMDGTFNVTSCLKLNSSQEDPGTVYQCVVRHASLHTPLRSNFTLTAARHSLSETEKTDNFSIHWWPISFIGVGLVLLIVLIPWKKICNKSSSAYTPLKCILKHWNSFDTQTLKKEHLIFFCTRAWPSYQLQDGEAWPPEGSVNINTIQQLDVFCRQEGKWSEVPYVQAFFALRDNPDLCQCCRIDPALLTVTSGKSIDDNSTKSEKQTPREHSDAVPDAPILPVSPIWEPPPATTSTTPVLSSQPPTLLLPLQ
With B5 the stability_or_folding [20] was “decreases”.

B6: B7-H6 C212S extracellular portion, glycosylation state not told in the text for the experiment (domain or fragment)
chain: T1 sequence
modifications: glycosylation state marked only in the figures; biotinylated with EZ-Link NHS-Biotin for SPR
B6 showed a stoichiometry N [21] of 1 and a percent of NKp30 Stalk T oligomers accessible [22] of 60 to 70%.

B7: B7-H6 C212S extracellular portion, uniform simple N-glycans (expressed in HEK293S GnTI^−) (domain or fragment)
chain: T1 sequence
modifications: uniform Asn-GlcNAc2Man5 N-glycans; biotinylated with EZ-Link NHS-Biotin for SPR; labelled with ATTO 488-NHS ester for the two-wavelength sedimentation analysis
B7 showed a percent of NKp30 binding sites occupied by B7-H6 in the oligomers [23] of 60% and a stoichiometry N ([23]; scale: B7-H6 molecules per eight NKp30 molecules) of 5.
